Source: PMC3319578, “Talin Contains A C-Terminal Calpain2 Cleavage Site Important In Focal Adhesion Dynamics” (PLoS ONE, 2012)

B1: talin1 2300–2541 polypeptide (C-terminal actin-binding site and dimerisation domain), wild type (domain or fragment, mouse, UniProt P26039 2300-2541, looked up)
chain: DPTVIAENELLGAAAAIEAAAKKLEQLKPRAKPKEADESLNFEEQILEAAKSIAAATSALVKAASAAQRELVAQGKVGAIPANALDDGQWSQGLISAARMVAAATNNLCEAANAAVQGHASQEKLISSAKQVAASTAQLLVACKVKADQDSEAMKRLQAAGNAVKRASDNLVKAAQKAAAFEDQENETVVVKEKMVGGIAQIIAAQEEMLRKERELEEARKKLAQIRQQQYKFLPSELRDEH
notes: Cloned into pET-151/D-TOPO; dimer by gel filtration; also called talin 2300–2541; ABS-DD; source: E. coli, purified (Ni-NTA, TEV cleavage, Resource-Q)
B2: talin1 2300–2541 E2492G mutant (domain or fragment, mouse, UniProt P26039 2300-2541, looked up)
chain: DPTVIAENELLGAAAAIEAAAKKLEQLKPRAKPKEADESLNFEEQILEAAKSIAAATSALVKAASAAQRELVAQGKVGAIPANALDDGQWSQGLISAARMVAAATNNLCEAANAAVQGHASQEKLISSAKQVAASTAQLLVACKVKADQDSEAMKRLQAAGNAVKRASDNLVKAAQKAAAFEDQENETVVVKGKMVGGIAQIIAAQEEMLRKERELEEARKKLAQIRQQQYKFLPSELRDEH
notes: talin1, mouse, residues 2300–2541 with E2492G; Dimer by gel filtration; also called E2494G (as printed once in the text); source: E. coli, purified (Ni-NTA, TEV cleavage, Resource-Q)

Molecular target: the molecule itself
Experiment: SEC; analytical gel filtration, Superdex-75 (10/300), room temperature, 20 mM Tris pH 8.0, 150 mM NaCl, 2 mM DTT, 0.8 ml/min

| Protein | stoichiometry N |
| --- | --- |
| B1 | 2 |
| B2 | 2 |
